Experimental findings from patent US20110059095A1 (Regeneron, published 2011) are described below.

Where no end group is shown, it is not given here. The star is where a group is joined. Biotin = O=C1N[C@H]2[C@H](CS[C@H]2CCCCC(=O)*)N1

The target of experiment [1] is T1, Peptide A (human PAR-2), unbiotinylated (Human).
T1 construct: also called Peptide A No Biotin
T1 peptide: GTNRSSKGRSLIGKVDGT
The experiment in a line: peptide ELISA. Here is the method:
(§1) Anti-PAR-2 antibodies were tested for their ability to bind to the PAR-2 peptides. Various PAR-2 Peptides (Table 3) were coated onto 96-well plates at a concentration of 2 μg/ml and incubated overnight followed by blocking in a suitable blocking agent for one hour. […] Purified anti-PAR-2 antibodies were added to the plate coated with PAR-2 peptides to a final concentration ranging from 0.2 to 2.0 μg/ml and incubated for one hour at room temperature. Detection of bound antibodies was determined with Horse-Radish Peroxidase (HRP) conjugated anti-mouse or human IgG (Jackson Immuno Research Lab, West Grove, Pa.) and developed by standard colorimetric response using tetramethylbenzidine (TMB) substrate. Absorbance was read at OD₄₅₀ for 0.1 second.
(In general: ELISA stands for enzyme-linked immunosorbent assay.)

For experiment [2], the target named is T2, Peptide A (human PAR-2), N-terminal biotinylated (Human, N-terminal biotin via G4S linker).
T2 construct: also called Peptide A N-Term
T2 peptide: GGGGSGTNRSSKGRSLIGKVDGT
Description: peptide ELISA. Here is the method: as §1

In experiment [3] the target is T3, Peptide A (human PAR-2), C-terminal biotinylated (Human, C-terminal biotin via G4S linker).
T3 construct: also called Peptide A C-Term
Description: peptide ELISA. Here is the method: as §1

Experiment [4] has as its target T4, Peptide B (human PAR-2), unbiotinylated (Human).
T4 construct: also called Peptide B No Biotin
T4 peptide: SLIGKVDGTSHVTG
The experiment in a line: peptide ELISA. The protocol:
as §1

For experiment [5], the target named is T5, Peptide B (human PAR-2), N-terminal biotinylated (Human).
T5 construct: also called Peptide B N-Term
T5 peptide: Biotin-GGGGSSLIGKVDGTSHVTG
The experiment in a line: peptide ELISA. Here is the method:
as §1

For experiment [6], the target named is T6, Peptide B (human PAR-2), C-terminal biotinylated (Human, not fully specified).
T6 construct: also called Peptide B C-Term
T6 peptide: SLIGKVDGTSHVTGGGGGS-biotin
Description: peptide ELISA. The protocol:
as §1

Experiment [7] addresses T7, Peptide C (human PAR-2), N-terminal biotinylated (Human).
T7 construct: also called Peptide C N-Term
T7 peptide: Biotin-GGGGSSLIGKV
The experiment in a line: peptide ELISA. The protocol: as §1

Experiment [8] deals with T8, Peptide C (human PAR-2), C-terminal biotinylated (Human).
T8 construct: also called Peptide C C-Term
T8 peptide: SLIGKVGGGGS-biotin
The experiment in a line: peptide ELISA. Here is the method: as §1

For experiment [9], the target named is T1, Peptide A (human PAR-2), unbiotinylated. Description: SPR, antibody captured. The protocol: (§2) Equilibrium dissociation constants (KD values) for antigen binding to selected purified PAR-2 antibodies were determined by surface kinetics using a real-time surface plasmon resonance biosensor assay. Antibody was captured on either a rabbit anti-mouse IgG polyclonal antibody (GE Healthcare, Piscataway, N.J.) surface or a goat anti-human IgG polyclonal antibody (Jackson Immuno Research Lab, West Grove, Pa.) surface created through direct amine chemical coupling to a BIACORE™ CM5 sensor chip to form a captured antibody surface. […] Antigen-antibody binding and dissociation were monitored in real time at room temperature. Kinetic analysis was performed to calculate KD and half-life of antigen/antibody complex dissociation (Table 10). For those antibodies where no T_{1/2} value is shown, steady state analysis was used to calculate the KD value. NB: no binding observed under current experimental conditions. ND: not determined.

Experiment [10] concerns the target T4, Peptide B (human PAR-2), unbiotinylated. Description: SPR, antibody captured. The protocol:
as §2

Experiment [11] has as its target T9, full length human PAR-2 (human, UniProt P55085 26-397). Description: cell-based or functional assay.
Experiment [12] addresses T3, Peptide A (human PAR-2), C-terminal …. Description: SPR, peptide immobilized. The protocol:
(§3) In another series of experiments, equilibrium dissociation constants (KD values) for purified antibody binding to selected biotinylated and unbiotinylated forms of PAR-2 peptides were determined by surface kinetics using a real-time surface plasmon resonance biosensor assay. Neutravidin (Pierce, Rockford, Ill.) was covalently coupled to the surface of a Biacore™ C1 chip or CM5 chip using amine coupling chemistry. Biotinylated (N-Term or C-Term) PAR-2 peptides (Peptides A and B) were immobilized on the surface via the high affinity binding interaction between biotin and the amine coupled Neutravidin.
(§4) In a first experiment using this format, varying concentrations (ranging from 5 to 100 μg/ml) of purified antibody were injected at a rate of 50 μl/min over a surface coated with immobilized peptide at low-density (<1RU) for 300 seconds. Antibody-peptide binding and dissociation was monitored in real time 25° C.
In general terms: SPR reads the build-up and loss of mass on a sensor chip optically.

Experiment [13] addresses T6, Peptide B (human PAR-2), C-terminal …. The experiment in a line: SPR, peptide immobilized. The protocol: as §3, §4
For experiment [14], the target named is T9, full length human PAR-2. Description: cell ELISA, 10 ug/ml antibody. An excerpt:
HEK293 cells were transfected with an NF-κB-luciferase-IRES-eGFP reporter plasmid. […] A clonal cell line, named D9, having low background levels of luciferase activity and high levels of eGFP when induced with IL-1β was made by a series of successive sorts of cell populations using flow cytometry. The 293/D9 cell line was then separately transfected with human PAR-2 or mouse PAR-2 to create the stable cell lines 293/D9/h PAR-2rec and 293/D9/m PAR-2rec, respectively.
Binding of anti-PAR-2 antibodies to 293/D9/hPAR-2rec cells was determined by ELISA. 293/D9 and 293/D9/hPAR-2rec cells were plated at a density of 5×10⁴ cells/well in media and incubated overnight at 37° C. and 5% CO₂. Purified antibody was added to the cells to a final concentration of 10 μg/ml and incubated at room temperature for one hour. Cells were then fixed and washed before detection of bound antibodies with HRP conjugated anti-mouse IgG and developed by standard colorimetric response using TMB substrate. Absorbance was read at OD₄₅₀ for 0.1 second.

The target in experiment [15] is T1, Peptide A (human PAR-2), unbiotinylated. The experiment in a line: SPR, antibody captured, steady state. The protocol:
as §2

T9 sequence (P55085 26-397 G138A limits assumed): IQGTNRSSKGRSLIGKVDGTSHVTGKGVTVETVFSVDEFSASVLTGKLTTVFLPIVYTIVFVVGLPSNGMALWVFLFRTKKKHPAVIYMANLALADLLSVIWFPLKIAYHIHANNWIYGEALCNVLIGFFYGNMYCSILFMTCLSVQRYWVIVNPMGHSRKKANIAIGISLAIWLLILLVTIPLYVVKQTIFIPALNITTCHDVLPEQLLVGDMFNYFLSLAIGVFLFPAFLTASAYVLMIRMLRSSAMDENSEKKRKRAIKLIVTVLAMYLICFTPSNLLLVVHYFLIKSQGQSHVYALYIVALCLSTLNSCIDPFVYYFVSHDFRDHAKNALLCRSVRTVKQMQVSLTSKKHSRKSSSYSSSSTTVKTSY

B1: H2M588N (antibody, V domains shown)
VH: EVQLLESGGGLVQPGGSLRLSCAASGFTFSSYAMTWVRQAPGKGLYWVSAISGGRGSAYYADSVKGRFTISRDNSKNTLYLQMNSLRAEDTAVYYCAKEGDSGYDLAYWGRGTLVTVSS
VL: DIQMTQSPSSLSASVGDRVTITCRARQGISNNLAWLQQKPGKAPKSLIYAASSLQSGIPSKFSGSGSGTYFTLTISSLQPEDFATYYCQQYKSSPLTFGGGTKVEIK
notes: chimeric: human variable, mouse constant domains
As to B1, the OD450 in experiment [1], in experiment [2], in experiment [3], in experiment [4], in experiment [5] and in experiment [6] was 1 to 4 od each time. Moreover, the OD450 in experiment [7] and in experiment [8] was 0 to 0.09 od in each case. Moreover, the dissociation constant (Kd) – broadly, the equilibrium constant for the complex coming apart – in experiment [9] came out at 4.47 nM; in [10], 61.7 nM; in [12] it was 0.826 nM; in experiment [13], 1.49 nM. Moreover, the T1/2 in [9] was determined as 60.8 min; in experiment [10] it was 7.7 min; in experiment [12], 169 min; in [13], 140 min. Besides, in experiment [11], the “IC50, NF-kB-luciferase, 10 nM Human Trypsin 1” value turned out to be 165 nM. In addition, the “IC50, NF-kB-luciferase, 10 nM Trypsin” value in [11] was 10.4 nM. The “IC50, NF-kB-luciferase, 20 nM Trypsin” value in experiment [11] is 26.8 nM. In addition, in experiment [11], the “IC50, NF-kB-luciferase, 30 nM Trypsin” value stood at 33 nM. The “IC50, NF-kB-luciferase, 75 nM Trypsin” value in experiment [11] worked out at 5.7 nM. For the same molecule, in experiment [11], the “IC50, NF-kB-luciferase, 200 nM Factor Xa” value was 45.3 nM. Also, the “IC50, NF-kB-luciferase, 250 nM Trypsin” value in experiment [11] amounted to 2.3 nM. Further, in experiment [11], the “IC50, NF-kB-luciferase, 750 nM Lung Tryptase” value was 1 nM. The “A450 ratio (293/D9/hPAR-2rec to 293/D9 cells)” value (“A450 ratio” for short) in experiment [14] was found to be 2.5.

B2: H2M589N (antibody, V domains shown)
VH: EVQLLESGGGLVQPGGSLRLSCATSGFTFSRYTMTWVRQAPGKGLFWVSGIGGSGGRAYYADSVKGRFTLSRDNSKNTLYLQMNSLRAEDTAVYYCAKEGDSGYDLDYWGRGTLVTVSS
VL: DIQMTQYPSSLSASVGDRVTITCRARQGISNYLAWLQQKPGKAPKSLIYAASSLQRGVPSKFSGSGSGTDFTLTISSLQPEDSATYYCQQYKISPLTFGGGTKVEIK
notes: as for B1
In the case of B2, the OD450 in [1], in [2], in [3], in [4], in experiment [5] and in experiment [6] was 1 to 4 od in each case. For the same molecule, the OD450 in experiment [7] and in experiment [8] was 0 to 0.09 od each time. In addition, the Kd in experiment [9] amounted to 3.75 nM; in experiment [10], 128 nM. For the same molecule, the T1/2 in experiment [9] was determined as 51.3 min; in [10], 7.3 min. For the same molecule, in experiment [11], the “IC50, NF-kB-luciferase, 75 nM Trypsin” value turned out to be 3.7 nM. Also, in [11], the “IC50, NF-kB-luciferase, 250 nM Trypsin” value worked out at 6.3 nM. Further, in experiment [14], the “A450 ratio” value amounted to 2.03.

B3: H2M591N (antibody, V domains shown)
VH: EVQLLESGGGLVQPGGSLRLSCATSGFTFSRYTMTWVRQAPGKGLFWVSGIGGSGGRAYYADSVKGRFTLSRDNSKNTLYLQMNSLRAEDTAVYYCAKEGDSGYDLDYWGRGTLVTVSS
VL: DIQMTQYPSSLSASVGDRVTITCRARQGISNYLAWLQQKPGKAPKSLIYAASSLQRGVPSKFSGSGSGTDFTLTISSLQPEDSATYYCQQYKISPLTFGGGTKVEIK
notes: as for B1
Turning to B3, the OD450 in experiment [1], in experiment [2], in experiment [3], in experiment [4], in [5] and in experiment [6] was 1 to 4 od in each case. The OD450 in experiment [7] and in experiment [8] was 0 to 0.09 od throughout. In addition, the equilibrium dissociation constant (Kd) came out at 4.22 nM in experiment [9], 151 nM in experiment [10], 0.545 nM in experiment [12] and 1.82 nM in experiment [13]. The T1/2 in experiment [9] is 42.7 min; in experiment [10], 8.1 min; in experiment [12] it was 209 min; in experiment [13], 94 min. Further, in [11], the “IC50, NF-kB-luciferase, 10 nM Human Trypsin 1” value came out at 150 nM. In addition, the “IC50, NF-kB-luciferase, 10 nM Trypsin” value in experiment [11] turned out to be 24.2 nM. For the same molecule, the “IC50, NF-kB-luciferase, 20 nM Trypsin” value in experiment [11] was found to be 122 nM. Moreover, the “IC50, NF-kB-luciferase, 200 nM Factor Xa” value in [11] is 51.5 nM. The “IC50, NF-kB-luciferase, 250 nM Trypsin” value in experiment [11] is 4.5 nM. Moreover, in experiment [11], the “IC50, NF-kB-luciferase, 750 nM Lung Tryptase” value turned out to be 88.1 nM. In experiment [14], the “A450 ratio” value was found to be 2.25.

B4: H1M590N (antibody, V domains shown)
VH: EVQLVESGGGLVQPGRSLRLSCAASGFTFDDYAMHWVRQAPGKGLEWVSGITWNSGTMAYADSVKGRFTISRDNAKNSLYLQMNSLRAEDTALYYCAKENWAFDYWGQGTLVTVSS
VL: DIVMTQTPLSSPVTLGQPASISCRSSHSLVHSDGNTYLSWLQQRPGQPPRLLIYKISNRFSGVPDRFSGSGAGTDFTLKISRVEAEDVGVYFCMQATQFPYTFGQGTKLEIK
notes: as for B1
Regarding B4, the OD450 was in the range of 1 to 4 od in experiment [1]; 1 to 4 od in experiment [2]; 1 to 4 od in experiment [3]; 0 to 0.09 od in experiment [4]; 0 to 0.09 od in [5]; 0 to 0.09 od in experiment [6]. In addition, the OD450 in [7] and in experiment [8] was 0 to 0.09 od each time. The Kd in [12] came out at 1.27 nM; in experiment [15], 173 nM. This molecule also gave a T1/2 in [12] of 13 min. For the same molecule, the binding result in [13] is recorded as “no binding (tested: 5 to 100 ug/ml antibody)”. For the same molecule, in [14], the “A450 ratio” value came out at 1.81.

B5: H1M616N (antibody, V domains shown)
VH: EVQLVESGGGLAQPGRSLRVSCSASGFNFDDYAMHWVRQAPGKGLEWVSGISWNSGSRGYADSVKGRFTISRDNAKNSLYLQMNSLRAEDTALYYCVKENWAFEYWGQGTLVTVSS
VL: DIVMTQTPLSSPVTLGQPASISCRSSHSLVHSDGSTYLSWLQQRPGQPPRLLIYKISNRFSGVPDRFSGSGAGTDFTLKISRVEAEDVGLYYCMQATQFPYTFGQGTKLEIK
notes: as for B1
In the case of B5, the OD450 in experiment [1] was in the range of 1 to 4 od; in experiment [2], 1 to 4 od; in [3] it was 1 to 4 od; in experiment [4] it was 0 to 0.09 od; in experiment [5], 0 to 0.09 od; in [6] it was 0 to 0.09 od. Besides, the OD450 in experiment [7] and in experiment [8] was 0 to 0.09 od throughout. Moreover, the “A450 ratio” value in [14] was 2.78. This molecule also yielded a Kd in [15] of 144 nM.
